The target of this assay is T1, recombinant human SHP-2 (human, UniProt Q06124 1-593).
T1 construct: SHP-2, protein tyrosine phosphatase with two SH2 domains, human, recombinant; The supplier is named only in the SPR methods; source: bought: R&D Systems, 1894-SH-100
T1 sequence (looked up): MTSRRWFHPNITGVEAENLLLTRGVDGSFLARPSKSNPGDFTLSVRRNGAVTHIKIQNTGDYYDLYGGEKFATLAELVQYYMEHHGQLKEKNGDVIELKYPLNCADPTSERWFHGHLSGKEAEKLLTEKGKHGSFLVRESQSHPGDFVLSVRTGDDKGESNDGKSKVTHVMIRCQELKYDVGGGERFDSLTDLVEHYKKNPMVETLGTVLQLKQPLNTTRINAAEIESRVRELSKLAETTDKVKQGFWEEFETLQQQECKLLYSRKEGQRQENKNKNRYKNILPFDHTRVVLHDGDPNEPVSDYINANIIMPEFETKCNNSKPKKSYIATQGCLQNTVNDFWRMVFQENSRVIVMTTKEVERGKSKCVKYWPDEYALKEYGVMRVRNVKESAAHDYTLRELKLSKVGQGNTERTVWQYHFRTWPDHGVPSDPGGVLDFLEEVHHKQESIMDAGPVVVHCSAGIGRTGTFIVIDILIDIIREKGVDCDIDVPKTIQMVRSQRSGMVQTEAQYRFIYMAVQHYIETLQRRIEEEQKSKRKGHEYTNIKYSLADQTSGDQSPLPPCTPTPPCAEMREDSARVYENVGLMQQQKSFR
The experiment in a line: ELISA; wells coated with SHP-2 (5 µg/mL, TBS pH 8) or BSA; GST:LRP1-ICD or PDGFRβ KD titrated in TBS, 0.5% BSA, 0.05% Tween 20, sodium orthovanadate, overnight at 4°C; detected with anti-GST or anti-PDGFRβ antibody; fit to a single class of sites. A general note: ELISA stands for enzyme-linked immunosorbent assay.

In paper PMC3724782, “The LDL Receptor-Related Protein 1 (LRP1) Regulates the PDGF Signaling Pathway by Binding the Protein Phosphatase SHP-2 and Modulating SHP-2- Mediated PDGF Signaling Events” (PLoS ONE, 2013) one finds Kd data, which are given here for 3 molecules.

One may read the Kd as the constant that tells how readily two partners part at equilibrium.

Where two headings read alike, the source gives them in different places.

Regarding “phosphorylated GST:LRP1-ICD (LDL receptor-related protein 1 intracellular domain fused to glutathione S-transferase, tyrosine-phosphorylated) (domain or fragment)”, the Kd amounted to 18 nM.

B1: phosphorylated PDGFRβ kinase domain (domain or fragment, UniProt P09619 558-1106, looked up)
chain: KKPRYEIRWKVIESVSSDGHEYIYVDPMQLPYDSTWELPRDQLVLGRTLGSGAFGQVVEATAHGLSHSQATMKVAVKMLKSTARSSEKQALMSELKIMSHLGPHLNVVNLLGACTKGGPIYIITEYCRYGDLVDYLHRNKHTFLQHHSDKRRPPSAELYSNALPVGLPLPSHVSLTGESDGGYMDMSKDESVDYVPMLDMKGDVKYADIESSNYMAPYDNYVPSAPERTCRATLINESPVLSYMDLVGFSYQVANGMEFLASKNCVHRDLAARNVLICEGKLVKICDFGLARDIMRDSNYISKGSTFLPLKWMAPESIFNSLYTTLSDVWSFGILLWEIFTLGGTPYPELPMNEQFYNAIKRGYRMAQPAHASDEIYEIMQKCWEEKFEIRPPFSQLVLLLERLLGEGYKKKYQQVDEEFLRSDHPAILRSQARLPGFHGLRSPLDTSSVLYTAVQPNEGDNDYIIPLPDPKPEVADEGPLEGSPSLASSTLNEVNTSSTISCDSPLEPQDEPEPEPQLELQVEPEPELEQLPDSGCPAPRAEAEDSFL
modifications: phosphotyrosine (autophosphorylated with ATP and MgCl2; sites not mapped here)
notes: PDGF receptor β (PDGFRβ), kinase domain (KD); as far as I recall the product is a tagged human cytoplasmic fragment reaching to the C-terminus, to be checked with the supplier; also called pPDGFRβ KD; phospho-PDGFRβ KD; source: bought: Millipore (14-463); phosphorylated by incubating the protein with 1 mM ATP and 1 mM MgCl2
With B1, for the setting “both partners purified”, the Kd stood at 7.8 ± 1 nM.

B2: unphosphorylated PDGFRβ kinase domain (domain or fragment, UniProt P09619 558-1106, looked up)
chain: KKPRYEIRWKVIESVSSDGHEYIYVDPMQLPYDSTWELPRDQLVLGRTLGSGAFGQVVEATAHGLSHSQATMKVAVKMLKSTARSSEKQALMSELKIMSHLGPHLNVVNLLGACTKGGPIYIITEYCRYGDLVDYLHRNKHTFLQHHSDKRRPPSAELYSNALPVGLPLPSHVSLTGESDGGYMDMSKDESVDYVPMLDMKGDVKYADIESSNYMAPYDNYVPSAPERTCRATLINESPVLSYMDLVGFSYQVANGMEFLASKNCVHRDLAARNVLICEGKLVKICDFGLARDIMRDSNYISKGSTFLPLKWMAPESIFNSLYTTLSDVWSFGILLWEIFTLGGTPYPELPMNEQFYNAIKRGYRMAQPAHASDEIYEIMQKCWEEKFEIRPPFSQLVLLLERLLGEGYKKKYQQVDEEFLRSDHPAILRSQARLPGFHGLRSPLDTSSVLYTAVQPNEGDNDYIIPLPDPKPEVADEGPLEGSPSLASSTLNEVNTSSTISCDSPLEPQDEPEPEPQLELQVEPEPELEQLPDSGCPAPRAEAEDSFL
notes: PDGF receptor β (PDGFRβ), kinase domain (KD); also called PDGFRβ KD; non-phosphorylated PDGFRβ KD; source: bought: Millipore (14-463)
Turning to B2, the Kd (both partners purified) was 326 ± 68 nM.
